In patent US20230220071A1 (Hoffmann-La Roche, published 2023) one finds koff data, which are given here for 21 molecules.

B1: clone 299 VH 0 (rb) / VL 14 (antibody, V domains shown)
VH: QSMEESGGRLVTPGTPLTLTCTVSGFSLSSYAMSWVRQAPGKGLEWIGYIWSGGSTDYASWAKGRFTISKTSTTVDLKITSPTTEDTATYFCARRYGTSYPDYGDANGFDPWGPGTLVTVSS
VL: DIVMTQSPDSLAVSLGERATINCKSSQSISSYLSWYQQKPGQRPKLLIYRASTLASGVPDRFSGSGSGTDFTLTISSLQAEDVAVYYCQQSYSSSNVDNTFGGGTKVEIK
B2: clone 299 VH 0 (rb) / VL 15 (antibody, V domains shown)
VH: QSMEESGGRLVTPGTPLTLTCTVSGFSLSSYAMSWVRQAPGKGLEWIGYIWSGGSTDYASWAKGRFTISKTSTTVDLKITSPTTEDTATYFCARRYGTSYPDYGDANGFDPWGPGTLVTVSS
VL: DIVMTQSPDSLAVSLGERATINCKSSQSISSYLIWYQQKPGQPPKLLIYRASTLASGVPDRFSGSGSGTDFTLTISSLQAEDVAVYYCQQAYSSSNVDNTFGGGTKVEIK
B3: clone 299 VH 11 / VL 9-NYA (antibody, V domains shown)
VH: QQLLESGGGLVQPGGSLRLSCAASGFSLSSYAMSWVRQAPGKGLEWVGYIWSGGSTDYADSVKGRFTISRDNSKNTLYLQMNSLRAEDTAVYYCARRYGTSYPDYGDANGFDPWGQGTLVTVSS
VL: AIQLTQSPSSLSASVGDRVTITCRASQSISSYLAWYQQKPGKAPKLLIYRASTLASGVPSRFSGSGSGTDFTLTISSLQPEDFATYYCQQNYASSNVDNTFGGGTKVEIK
B4: clone 299 VH 11 / VL 0 (rb) (antibody, V domains shown)
VH: QQLLESGGGLVQPGGSLRLSCAASGFSLSSYAMSWVRQAPGKGLEWVGYIWSGGSTDYADSVKGRFTISRDNSKNTLYLQMNSLRAEDTAVYYCARRYGTSYPDYGDANGFDPWGQGTLVTVSS
VL: AYDMTQTPASVEVAVGGTVTIKCQASQSISSYLSWYQQKPGQRPKLLIYRASTLASGVSSRFKGSGSGTQFTLTISGVECADAATYYCQQCYSSSNVDNTFGGGTEVVVK
B5: clone 299 VH 7 / VL 0 (rb) (antibody, V domains shown)
VH: QQLVETGGGLIQPGGSLRLSCAASGFSLSSYAMSWVRQAPGKGLEWIGYIWSGGSTDYASWAKGRFTISRDNSKNTLYLQMNSLRAEDTAVYYCARRYGTSYPDYGDANGFDPWGQGTLVTVSS
VL: AYDMTQTPASVEVAVGGTVTIKCQASQSISSYLSWYQQKPGQRPKLLIYRASTLASGVSSRFKGSGSGTQFTLTISGVECADAATYYCQQCYSSSNVDNTFGGGTEVVVK
B6: clone 299 VH 5 / VL 0 (rb) (antibody, V domains shown)
VH: QSMEETGGGLIQPGGSLRLSCAASGFSLSSYAMSWVRQAPGKGLEWVGYIWSGGSTDYADSVKGRFTISRDNSKNTLYLQMNSLRAEDTAVYYCARRYGTSYPDYGDANGFDPWGPGTLVTVSS
VL: AYDMTQTPASVEVAVGGTVTIKCQASQSISSYLSWYQQKPGQRPKLLIYRASTLASGVSSRFKGSGSGTQFTLTISGVECADAATYYCQQCYSSSNVDNTFGGGTEVVVK
B7: clone 299 VH 12 / VL 9-NYA (antibody, V domains shown)
VH: QVQLQESGPGLVKPSETLSLTCTVSGFSLSSYAMSWIRQPPGKGLEWIGYIWSGGSTDYNPSLKSRVTISVDTSKNQFSLKLSSVTAADTAVYYCARRYGTSYPDYGDANGFDPWGQGTLVTVSS
VL: AIQLTQSPSSLSASVGDRVTITCRASQSISSYLAWYQQKPGKAPKLLIYRASTLASGVPSRFSGSGSGTDFTLTISSLQPEDFATYYCQQNYASSNVDNTFGGGTKVEIK
B8: clone 299 VH 1 / VL 0 (rb) (antibody, V domains shown)
VH: VQLVETGGGLIQPGGSLRLSCAASGFSLSSYAMSWVRQAPGKGLEWVGYIWSGGSTDYADSVKGRFTISRDNSKNTLYLQMNSLRAEDTAVYYCARRYGTSYPDYGDANGFDPWGQGTLVTVSS
VL: AYDMTQTPASVEVAVGGTVTIKCQASQSISSYLSWYQQKPGQRPKLLIYRASTLASGVSSRFKGSGSGTQFTLTISGVECADAATYYCQQCYSSSNVDNTFGGGTEVVVK
B9: clone 299 VH 13 / VL 9-NYA (antibody, V domains shown)
VH: QVQLQESGPGLVKPSETLSLTCTVSGFSLSSYAMSWIRQPPGKGLEWIGYIWSGGSTDYNPSLKSRVTISVDTSKNQVSLKLSSVTAADTAVYYCARRYGTSYPDYGDANGFDPWGQGTLVTVSS
VL: AIQLTQSPSSLSASVGDRVTITCRASQSISSYLAWYQQKPGKAPKLLIYRASTLASGVPSRFSGSGSGTDFTLTISSLQPEDFATYYCQQNYASSNVDNTFGGGTKVEIK
B10: clone 299 VH 18 / VL 9-NYA (antibody, V domains shown)
VH: QVQLQESGPGLVKPSQTLSLTCTVSGFSLSSYAMSWIRQHPGKGLEWIGYIWSGGSTDYAPSLKSRVTISVDTSKNQFSLKLSSVTAADTAVYYCARRYGTSYPDYGDANGFDPWGQGTLVTVSS
VL: AIQLTQSPSSLSASVGDRVTITCRASQSISSYLAWYQQKPGKAPKLLIYRASTLASGVPSRFSGSGSGTDFTLTISSLQPEDFATYYCQQNYASSNVDNTFGGGTKVEIK
B11: clone 299 VH 9 / VL 0 (rb) (antibody, V domains shown)
VH: QQLLESGGGLVQPGGSLRLSCAASGFTFSSYAMSWVRQAPGKGLEWVGYIWSGGSTDYADSVKGRFTISRDNSKNTLYLQMNSLRAEDTAVYYCAKRYGTSYPDYGDANGFDPWGQGTLVTVSS
VL: AYDMTQTPASVEVAVGGTVTIKCQASQSISSYLSWYQQKPGQRPKLLIYRASTLASGVSSRFKGSGSGTQFTLTISGVECADAATYYCQQCYSSSNVDNTFGGGTEVVVK
B12: clone 299 VH 20 / VL 0 (rb) (antibody, V domains shown)
VH: QSMQESGPGLVKPSQTLSLTCTVSGFSLSSYAMSWIRQHPGKGLEWIGYIWSGGSTDYAPSLKSRVTISVDTSKNQVSLKLSSVTAADTAVYYCARRYGTSYPDYGDANGFDPWGQGTLVTVSS
VL: AYDMTQTPASVEVAVGGTVTIKCQASQSISSYLSWYQQKPGQRPKLLIYRASTLASGVSSRFKGSGSGTQFTLTISGVECADAATYYCQQCYSSSNVDNTFGGGTEVVVK
B13: clone 299 VH 12 / VL 0 (rb) (antibody, V domains shown)
VH: QVQLQESGPGLVKPSETLSLTCTVSGFSLSSYAMSWIRQPPGKGLEWIGYIWSGGSTDYNPSLKSRVTISVDTSKNQFSLKLSSVTAADTAVYYCARRYGTSYPDYGDANGFDPWGQGTLVTVSS
VL: AYDMTQTPASVEVAVGGTVTIKCQASQSISSYLSWYQQKPGQRPKLLIYRASTLASGVSSRFKGSGSGTQFTLTISGVECADAATYYCQQCYSSSNVDNTFGGGTEVVVK
B14: clone 299 VH 23-DANG / VL 0 (rb) (antibody, V domains shown)
VH: QSMQESGPGLVKPSQTLSLTCTVSGFSLSSYAMSWIRQHPGKGLEWIGYIWSGGSTDYASWAKSRVTISKTSTTVSLKLSSVTAADTAVYYCARRYGTSYPDYGDANGFDPWGQGTLVTVSS
VL: AYDMTQTPASVEVAVGGTVTIKCQASQSISSYLSWYQQKPGQRPKLLIYRASTLASGVSSRFKGSGSGTQFTLTISGVECADAATYYCQQCYSSSNVDNTFGGGTEVVVK
B15: clone 299 VH 18 / VL 0 (rb) (antibody, V domains shown)
VH: QVQLQESGPGLVKPSQTLSLTCTVSGFSLSSYAMSWIRQHPGKGLEWIGYIWSGGSTDYAPSLKSRVTISVDTSKNQFSLKLSSVTAADTAVYYCARRYGTSYPDYGDANGFDPWGQGTLVTVSS
VL: AYDMTQTPASVEVAVGGTVTIKCQASQSISSYLSWYQQKPGQRPKLLIYRASTLASGVSSRFKGSGSGTQFTLTISGVECADAATYYCQQCYSSSNVDNTFGGGTEVVVK
B16: clone 299 VH 15 / VL 0 (rb) (antibody, V domains shown)
VH: QQLQESGPGLVKPSETLSLTCTVSGFSLSSYAMSWVRQPPGKGLEWIGYIWSGGSTDYNPSLKSRVTISVDTSKNQVSLKLSSVTAADTAVYYCARRYGTSYPDYGDANGFDPWGQGTLVTVSS
VL: AYDMTQTPASVEVAVGGTVTIKCQASQSISSYLSWYQQKPGQRPKLLIYRASTLASGVSSRFKGSGSGTQFTLTISGVECADAATYYCQQCYSSSNVDNTFGGGTEVVVK
B17: clone 299 VH 22 / VL 0 (rb) (antibody, V domains shown)
VH: QSMQESGPGLVKPSQTLSLTCTVSGFSLSSYAMSWVRQHPGKGLEWIGYIWSGGSTDYASWAKSRVTISVDTSKNQVSLKLSSVTAADTAVYYCARRYGTSYPDYGDANGFDPWGQGTLVTVSS
VL: AYDMTQTPASVEVAVGGTVTIKCQASQSISSYLSWYQQKPGQRPKLLIYRASTLASGVSSRFKGSGSGTQFTLTISGVECADAATYYCQQCYSSSNVDNTFGGGTEVVVK
B18: clone 299 VH 19 / VL 0 (rb) (antibody, V domains shown)
VH: QSMQESGPGLVKPSQTLSLTCTVSGFSLSSYAMSWIRQHPGKGLEWIGYIWSGGSTDYAPSLKSRVTISVDTSKNQFSLKLSSVTAADTAVYYCARRYGTSYPDYGDANGFDPWGQGTLVTVSS
VL: AYDMTQTPASVEVAVGGTVTIKCQASQSISSYLSWYQQKPGQRPKLLIYRASTLASGVSSRFKGSGSGTQFTLTISGVECADAATYYCQQCYSSSNVDNTFGGGTEVVVK
B19: clone 299 VH 16 / VL 0 (rb) (antibody, V domains shown)
VH: QQLQESGPGLVKPSETLSLTCTVSGFSLSSYAMSWVRQPPGKGLEWIGYIWSGGSTDYNPSLKSRVTISVDTSKNQVSLKLSSVTAADTAVYYCARRYGTSYPDYGDANGFDPWGPGTLVTVSS
VL: AYDMTQTPASVEVAVGGTVTIKCQASQSISSYLSWYQQKPGQRPKLLIYRASTLASGVSSRFKGSGSGTQFTLTISGVECADAATYYCQQCYSSSNVDNTFGGGTEVVVK
B20: clone 299 VH 17 / VL 0 (rb) (antibody, V domains shown)
VH: QQLQESGPGLVKPSETLSLTCTVSGFSLSSYAMSWVRQPPGKGLEWIGYIWSGGSTDYNPSLKSRVTISKDTSKNQVSLKLSSVTAADTAVYYCARRYGTSYPDYGDANGFDPWGPGTLVTVSS
VL: AYDMTQTPASVEVAVGGTVTIKCQASQSISSYLSWYQQKPGQRPKLLIYRASTLASGVSSRFKGSGSGTQFTLTISGVECADAATYYCQQCYSSSNVDNTFGGGTEVVVK
B21: clone 299 VH 21 / VL 0 (rb) (antibody, V domains shown)
VH: QSMQESGPGLVKPSQTLSLTCTVSGFSLSSYAMSWIRQHPGKGLEWIGYIWSGGSTDYASWAKSRVTISVDTSKNQVSLKLSSVTAADTAVYYCARRYGTSYPDYGDANGFDPWGQGTLVTVSS
VL: AYDMTQTPASVEVAVGGTVTIKCQASQSISSYLSWYQQKPGQRPKLLIYRASTLASGVSSRFKGSGSGTQFTLTISGVECADAATYYCQQCYSSSNVDNTFGGGTEVVVK

For orientation: koff means the rate constant with which the complex falls apart. Higher therefore signals a short-lived complex.

The target of the test is T1, human transferrin receptor (BIAcore, construct not stated) (human, UniProt P02786 89-760).
T1 construct: also called huTfR
T1 sequence (P02786 89-760): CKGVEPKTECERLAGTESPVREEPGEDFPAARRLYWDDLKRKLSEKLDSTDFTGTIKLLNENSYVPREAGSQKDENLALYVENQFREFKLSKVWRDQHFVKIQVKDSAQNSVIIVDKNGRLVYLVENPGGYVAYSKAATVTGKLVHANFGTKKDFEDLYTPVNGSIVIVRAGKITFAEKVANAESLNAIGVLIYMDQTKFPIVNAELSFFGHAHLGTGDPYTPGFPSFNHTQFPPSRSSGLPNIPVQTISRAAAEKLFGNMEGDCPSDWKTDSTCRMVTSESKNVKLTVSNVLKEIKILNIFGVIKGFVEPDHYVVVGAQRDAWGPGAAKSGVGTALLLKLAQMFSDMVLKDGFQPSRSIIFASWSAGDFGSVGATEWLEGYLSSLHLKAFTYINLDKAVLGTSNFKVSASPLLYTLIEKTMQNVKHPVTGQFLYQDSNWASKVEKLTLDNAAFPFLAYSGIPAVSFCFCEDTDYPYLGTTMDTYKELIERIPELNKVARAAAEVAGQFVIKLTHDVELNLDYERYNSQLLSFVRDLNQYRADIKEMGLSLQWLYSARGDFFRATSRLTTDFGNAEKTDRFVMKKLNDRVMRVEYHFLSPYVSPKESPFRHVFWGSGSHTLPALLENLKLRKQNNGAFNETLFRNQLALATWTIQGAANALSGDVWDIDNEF
Description: SPR, 25 C.
Consider B1, for which the koff was 0.00178 s⁻¹.

B2: the koff came to 0.00663 s⁻¹.

As to B3, the koff was found to be 0.00242 s⁻¹. Compared with the last molecule, the koff is about 2.7-fold lower.

Turning to B4, the koff was 0.000905 s⁻¹.

As to B5, the koff stood at 0.000515 s⁻¹.

In turn, B6 showed a koff of 0.000772 s⁻¹.

Turning to B7, the koff came to 0.00219 s⁻¹.

Turning to B8, the koff came out at 0.000908 s⁻¹.

As for B9, the koff is 0.00139 s⁻¹.

As for B10, the koff was found to be 0.00221 s⁻¹.

Turning to B11, the koff was 0.000901 s⁻¹.

Molecule B12 gave a koff of 0.00111 s⁻¹.

Turning to B13, the koff is 0.000921 s⁻¹.

B14 came in with a koff of 0.000338 s⁻¹.

With B15, the koff stood at 0.00109 s⁻¹.

As to B16, the koff worked out at 0.000763 s⁻¹. This koff and that of the molecule before are within 1.5-fold of each other.

Take B17: the koff is 0.000506 s⁻¹.

For B18, the koff is 0.001 s⁻¹.

For the molecule B19, the koff stood at 0.000653 s⁻¹.

For the molecule B20, the koff was 0.000413 s⁻¹. Against the preceding molecule, the koff is about 1.6-fold lower.

On to B21, for which the koff was determined as 0.000565 s⁻¹.
